Assay [1] addresses T1, hSIRPα expressed on primary human cells (human, UniProt P78324 31-504).
T1 construct: whole, on cells; also called hSIRPα on primary human CD14+ monocytes; on primary human granulocytes
Put plainly: flow cytometry on CD14+ enriched monocytes, human donor 2; blocked ligand: DyLight 488-labeled recombinant hCD47/Fc. The procedure: To assess the blocking ability of hSIRPα.40A, CD14+ enriched monocytes cells were seeded in 96-well round bottomed tissue culture plates and incubated for 45 minutes with FcR Blocking Reagent (Miltenyi Biotec) and hSIRPα.40A antibody (20 μg/mL and dilutions thereof) in PBS/1% BSA at 4° C. […] After this labeling procedure, cells were washed two times, resuspended in PBS/1% BSA containing 0.1 μg/mL DAPI (BioLegend), and analysed by flow cytometry on the FACSVerse (BD Biosciences). Data were processed and analysed with FlowJo V10 software (FlowJo, LLC). […] IC50 values represent the concentration at which half of the inhibition is observed.

The target of the next assay is T2, human SIRPα variant 2 (human, UniProt P78324 31-504).
T2 construct: full length ORF on transfected CHO-K1 cells; also called hSIRPαV2; SIRPαV2
T2 sequence (P78324 other isoform, or with tags, fused parts or gaps mutant limits assumed): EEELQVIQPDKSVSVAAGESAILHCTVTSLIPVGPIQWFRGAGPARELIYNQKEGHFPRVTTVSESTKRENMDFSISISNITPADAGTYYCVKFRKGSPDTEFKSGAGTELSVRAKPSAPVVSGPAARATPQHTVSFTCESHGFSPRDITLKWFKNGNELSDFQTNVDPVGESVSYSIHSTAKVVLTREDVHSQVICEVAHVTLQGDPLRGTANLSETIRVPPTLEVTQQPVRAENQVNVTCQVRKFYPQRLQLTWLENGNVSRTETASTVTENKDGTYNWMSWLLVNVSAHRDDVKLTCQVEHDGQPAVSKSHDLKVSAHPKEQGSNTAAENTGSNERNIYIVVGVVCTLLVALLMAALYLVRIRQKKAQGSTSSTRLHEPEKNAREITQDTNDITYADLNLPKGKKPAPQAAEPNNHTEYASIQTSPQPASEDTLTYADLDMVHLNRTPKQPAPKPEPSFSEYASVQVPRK
Put plainly: CELISA, CHO-K1 transfectants; average of two experiments. As for the experimental part: (§1) Binding of the humanized antibodies to hSIRPα was studied in CELISA format. Binding of the hSIRPα antibodies to human SIRPαV1, SIRPαV2, hSIRPβ1, and hSIRPγ was confirmed using CHO-K1 cells that had been transiently transfected with cDNA encoding the full length open reading frame of each of these respective targets subcloned into the pCI-neo vector. CHO-K1.hSIRPαV1, CHO-K1.hSIRPαV2, CHO-K1.hSIRPβ1, and CHO-K1.hSIRPγ cells were seeded in culture medium (DMEM-F12 (Gibco) supplemented with 5% New Born Calf Serum (BioWest) and Pen/Strep (Gibco)) in 96-well flat-bottom tissue culture plates and incubated at 37° C., 5% CO₂ and 95% humidity until cell layers were confluent. Subsequently, culture medium was removed and cells were incubated for 1 hour at 37° C., 5% CO₂ and 95% humidity with purified hSIRPα antibodies (10 μg/mL and dilutions thereof). Next, cells were washed with PBS-T and incubated for 1 hour at 37° C., 5% CO₂ and 95% humidity with goat-anti-human IgG-HRP conjugate (Jackson Immuno Research) or goat-anti-mouse IgG-HRP (Southern Biotech). Subsequently, cells were washed three times with PBS-T and anti-hSIRPα immunoreactivity was visualized with TMB Stabilized Chromogen (Invitrogen). Reactions were stopped with 0.5 M H₂SO₄ and absorbances were read at 450 and 610 nm. […] In Table 13 the EC50 values of the humanized hSIRPα antibodies are depicted.
(§2) Table 13: Binding of humanized and parental hSIRPα.50A antibodies to CHO-K1.hSIRPαV1, CHO-K1.hSIRPαV2, CHO-K1.hSIRPβ1, and CHO-K1.hSIRPγ cells.

The target of the next assay is T3, human SIRPα variant 1 (human, UniProt P78324 31-504).
T3 construct: full length ORF on transfected CHO-K1 or HEK293 cells; entry includes the signal peptide; also called hSIRPαV1; SIRPαV1
T3 sequence (P78324 31-504 limits assumed, change not shown): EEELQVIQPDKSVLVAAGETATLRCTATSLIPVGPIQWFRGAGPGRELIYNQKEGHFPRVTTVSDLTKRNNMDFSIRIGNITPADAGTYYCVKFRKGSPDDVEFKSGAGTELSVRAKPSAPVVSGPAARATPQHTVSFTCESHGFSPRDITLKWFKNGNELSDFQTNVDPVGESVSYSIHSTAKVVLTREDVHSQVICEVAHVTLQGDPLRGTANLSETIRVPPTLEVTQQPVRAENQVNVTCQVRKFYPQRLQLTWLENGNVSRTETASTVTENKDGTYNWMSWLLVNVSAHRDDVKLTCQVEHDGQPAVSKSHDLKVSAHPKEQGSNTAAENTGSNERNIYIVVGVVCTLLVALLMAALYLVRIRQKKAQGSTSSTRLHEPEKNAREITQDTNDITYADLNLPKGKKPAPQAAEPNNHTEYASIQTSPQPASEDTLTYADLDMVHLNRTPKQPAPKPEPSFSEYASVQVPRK
Described as above. The procedure:
as §1, §2

The target in another assay is T4, human SIRPβ1 (human, UniProt O00241 30-398).
T4 construct: also called hSIRPβ1
T4 sequence (O00241 30-398 limits assumed): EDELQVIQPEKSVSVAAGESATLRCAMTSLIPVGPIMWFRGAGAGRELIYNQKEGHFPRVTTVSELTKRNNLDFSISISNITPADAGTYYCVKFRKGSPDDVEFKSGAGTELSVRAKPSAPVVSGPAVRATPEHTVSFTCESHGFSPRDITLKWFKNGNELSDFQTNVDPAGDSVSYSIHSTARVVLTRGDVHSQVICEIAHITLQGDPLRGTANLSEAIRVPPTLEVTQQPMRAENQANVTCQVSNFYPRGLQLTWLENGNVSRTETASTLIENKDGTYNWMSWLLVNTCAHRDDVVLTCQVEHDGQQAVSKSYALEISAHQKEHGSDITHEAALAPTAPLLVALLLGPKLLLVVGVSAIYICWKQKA
The assay is described as above. As for the experimental part: The binding specificity of antibody hSIRPα.50A to hSIRPα was compared antibody KWAR23 (Canadian Patent 2939293 A1), in a CELISA format. CHO-K1 cells were transiently transfected with hSIRPαV1, hSIRPαV2, hSIRPβ1, and hSIRPγ (GenBank accession: NM_018556.3) (SEQ ID NO: 39) cDNAs. Subsequently, hSIRPα binding was assessed by CELISA using CHO-K1.hSIRPαV1, CHO-K1.hSIRPαV2, CHO-K1.hSIRPβ1, and CHO-K1.hSIRPγ cells. Detection of bound antibody was performed with goat-anti-mouse IgG-HRP (Southern Biotech) for mouse antibodies including hSIRPα.50A and control antibodies or, alternatively, with goat-anti-human IgG-HRP conjugate (Jackson Immuno Research) for the KWAR23 antibody. KWAR23 (SEQ ID NO: 130; SEQ ID NO: 131) was expressed as a chimeric human IgG4 kappa antibody in CHO cells. As shown in FIG. 2 and the following Table 9, KWAR23 antibody cross-reacts with all members of the SIRP receptor family tested: it binds to hSIRPαV1, hSIRPαV2, hSIRPβ1, and hSIRPγ.

T1 sequence (P78324 31-504): as the sequence (P78324 31-504 limits assumed, change not shown) above

B1: hSIRPα.40A (antibody, mouse IgG1, kappa, V domains shown)
VH: EVQFQQSGTVLARPGTSVKMSCKASGSTFTSYWMHWVKQGPGQGLQWIGAIYPVNNDTTYNQKFKGKAELTVVTSTSTAYMEVSSLTNEDSAVYYCTRSFYYSLDAAWFVYWGQGTLVTVSA
VL: DIQMTQSPSSLSASLGERVSLTCRASQDIGSRLNWLQQEPDGTIKRLIYATSSLDSGVPKRFSGSRSGSDYSLTISGLESEDFVDYYCLQYASSPFTFGGGTKLEINR
notes: mouse antibody, full chains without signal peptide; also called mouse hSIRPα.40A
B1: the “IC50 (read off the curve)” value in assay [1] is about 0.5 nM.

B2: hSIRPα.50A (antibody, V domains shown)
VH: QVQLQQSGPELVKPGASVRISCKASGFTFTNYYIHWVKQRPGQGLEWIGWIYPGNVNTKYNEKFKAKATLTADKSSTTAYMQLSSLASEDSAVYFCARPTIIATDFDVWGAGTTVTVSS
VL: DIVMTQSHKFMSTSVGDRVNITCKASQGVGTAVGWYQQKPGQSPRLLIYWASTRHTGVPDRFTGSGSGTDFSLAISNVQSEDLADYFCQQYSTYPFTFGGGTNLEIK
notes: light chain constant domain not tied; also called mouse hSIRPα.50A; hSIRPα.50A.mIgG1
As a reminder, the EC50 is the concentration needed to bring the measured effect to its halfway point. Low readings indicate a more potent agent, high ones a less potent agent. Turning to B2, the results for the EC50 with human SIRPα variant 2 and with human SIRPα variant 1 were 1.3 nM and 1.36 nM, respectively.

B3: KWAR23 (antibody, V domains shown)
VH: EVQLQQSGAELVKPGASVKLSCTASGFNIKDYYIHWVQQRTEQGLEWIGRIDPEDGETKYAPKFQDKATITADTSSNTAYLHLSSLTSEDTAVYYCARWGAYWGQGTLVTVSS
VL: QIVLTQSPAIMSASPGEKVTLTCSASSSVSSSYLYWYQQKPGSSPKLWIYSTSNLASGVPARFSGSGSGTSYSLTISSMEAEDAASYFCHQWSSYPRTFGAGTKLELK
The molecule B3 showed a 50% effective concentration (EC50) with human SIRPβ1 of 0.161 nM. This counts as sub-nanomolar.

The values are drawn from patent US20180312587A1 (ADURO BIOTECH HOLDINGS EUROPE B V, published 2018).
